Reference: IntAct's records for PubMed 17558407

B1: Nephrocystin-4 (Homo sapiens), O75161 (parent)
chain: MNDWHRIFTQNVLVPPHPQRARQPWKESTAFQCVLKWLDGPVIRQGVLEVLSEVECHLRVSFFDVTYRHFFGRTWKTTVKPTKRPPSRIVFNEPLYFHTSLNHPHIVAVVEVVAEGKKRDGSLQTLSCGFGILRIFSNQPDSPISASQDKRLRLYHGTPRALLHPLLQDPAEQNRHMTLIENCSLQYTLKPHPALEPAFHLLPENLLVSGLQQIPGLLPAHGESGDALRKPRLQKPITGHLDDLFFTLYPSLEKFEEELLELHVQDHFQEGCGPLDGGALEILERRLRVGVHNGLGFVQRPQVVVLVPEMDVALTRSASFSRKVVSSSKTSSGSQALVLRSRLRLPEMVGHPAFAVIFQLEYVFSSPAGVDGNAASVTSLSNLACMHMVRWAVWNPLLEADSGRVTLPLQGGIQPNPSHCLVYKVPSASMSSEEVKQVESGTLRFQFSLGSEEHLDAPTEPVSGPKVERRPSRKPPTSPSSPPAPVPRVLAAPQNSPVGPGLSISQLAASPRSPTQHCLARPTSQLPHGSQASPAQAQEFPLEAGISHLEADLSQTSLVLETSIAEQLQELPFTPLHAPIVVGTQTRSSAGQPSRASMVLLQSSGFPEILDANKQPAEAVSATEPVTFNPQKEESDCLQSNEMVLQFLAFSRVAQDCRGTSWPKTVYFTFQFYRFPPATTPRLQLVQLDEAGQPSSGALTHILVPVSRDGTFDAGSPGFQLRYMVGPGFLKPGERRCFARYLAVQTLQIDVWDGDSLLLIGSAAVQMKHLLRQGRPAVQASHELEVVATEYEQDNMVVSGDMLGFGRVKPIGVHSVVKGRLHLTLANVGHPCEQKVRGCSTLPPSRSRVISNDGASRFSGGSLLTTGSSRRKHVVQAQKLADVDSELAAMLLTHARQGKGPQDVSRESDATRRRKLERMRSVRLQEAGGDLGRRGTSVLAQQSVRTQHLRDLQVIAAYRERTKAESIASLLSLAITTEHTLHATLGVAEFFEFVLKNPHNTQHTVTVEIDNPELSVIVDSQEWRDFKGAAGLHTPVEEDMFHLRGSLAPQLYLRPHETAHVPFKFQSFSAGQLAMVQASPGLSNEKGMDAVSPWKSSAVPTKHAKVLFRASGGKPIAVLCLTVELQPHVVDQVFRFYHPELSFLKKAIRLPPWHTFPGAPVGMLGEDPPVHVRCSDPNVICETQNVGPGEPRDIFLKVASGPSPEIKDFFVIIYSDRWLATPTQTWQVYLHSLQRVDVSCVAGQLTRLSLVLRGTQTVRKVRAFTSHPQELKTDPKGVFVLPPRGVQDLHVGVRPLRAGSRFVHLNLVDVDCHQLVASWLVCLCCRQPLISKAFEIMLAAGEGKGVNKRITYTNPYPSRRTFHLHSDHPELLRFREDSFQVGGGETYTIGLQFAPSQRVGEEEILIYINDHEDKNEEAFCVKVIYQ
B2: Protein fantom (Homo sapiens), Q68CZ1-2 (parent)
chain: MSGPTDETAGDLPVKDTGLNLFGMGGLQETSTTRTMKSRQAVSRVSREELEDRFLRLHDENILLKQHARKQEDKIKRMATKLIRLVNDKKRYERVGGGPKRLGRDVEMEEMIEQLQEKVHELEKQNETLKNRLISAKQQLQTQGYRQTPYNNVQSRINTGRRKANENAGLQECPRKGIKFQDADVAETPHPMFTKYGNSLLEEARGEIRNLENVIQSQRGQIEELEHLAEILKTQLRRKENEIELSLLQLREQQATDQRSNIRDNVEMIKLHKQLVEKSNALSAMEGKFIQLQEKQRTLRISHDALMANGDELNMQLKEQRLKCCSLEKQLHSMKFSERRIEELQDRINDLEKERELLKENYDKLYDSAFSAAHEEQWKLKEQQLKVQIAQLETALKSDLTDKTEILDRLKTERDQNEKLVQENRELQLQYLEQKQQLDELKKRIKLYNQENDINADELSEALLLIKAQKEQKNGDLSFLVKVDSEINKDLERSMRELQATHAETVQELEKTRNMLIMQHKINKDYQMEVEAVTRKMENLQQDYELKVEQYVHLLDIRAARIHKLEAQLKDIAYGTKQYKFKPEIMPDDSVDEFDETIHLERGENLFEIHINKVTFSSEVLQASGDKEPVTFCTYAFYDFELQTTPVVRGLHPEYNFTSQYLVHVNDLFLQYIQKNTITLEVHQAYSTEYETIAACQLKFHEILEKSGRIFCTASLIGTKGDIPNFGTVEYWFRLRVPMDQAIRLYRERAKALGYITSNFKGPEHMQSLSQQAPKTAQLSSTDSTDGNLNELHITIRCCNHLQSRASHLQPHPYVVYKFFDFADHDTAIIPSSNDPQFDDHMYFPVPMNMDLDRYLKSESLSFYVFDDSDTQENIYIGKVNVPLISLAHDRCISGIFELTDHQKHPAGTIHVILKWKFAYLPPSGSITTEDLGNFIRSEEPEVVQRLPPASSVSTLVLAPRPKPRQRLTPVDKKVSFVDIMPHQSDVSQEGSVDEVKENTEKMQQGKDDVSLLSEGQLAEQSLASSEDETEITEDLEPEVEEDMSASDSDDCIIPGPISKNIKQPSEKIRIEIIALSLNDSQVTMDDTIQRLFVECRFYSLPAEETPVSLPKPKSGQWVYYNYSNVIYVDKENNKAKRDILKAILQKQEMPNRSLRFTVVSDPPEDEQDLECEDIGVAHVDLADMFQEGRDLIEQNIDVFDARADGEGIGKLRVTVEALHALQSVYKQYRDDLEA
partner: B1 chain

Variants of: B1
Conditions: with RPGRIP1L

Row | effect of a mutation on the interaction | Variant
1 | decreasing interaction | G754R

Variants of: B2
Conditions: with nphp4_human NPHP4, O75161

Row | effect of a mutation on the interaction | Variant
2 | decreasing interaction | T615P
